Here are results for two molecules from article PMC3727926 (Molecular Biology of the Cell, 2013).

First the molecules themselves.
B1: His-Arf3^Q71L, recombinant histidine-tagged constitutively active Arf3 (natural protein, S. cerevisiae, UniProt P40994 1-183, looked up)
chain: MGNSISKVLGKLFGSKEMKILMLGLDKAGKTTILYKLKLNKIKTSTPTVGFNVETVTYKNVKFNMWDVGGLQRLRPLWRHYFPATTALIFVIDSSARNRMEEAKEELYSIIGEKEMENVVLLVWANKQDLKDAMKPQEVSDFLELEKNLKNQPWCVIGSNALSGQGLVEGLSWISNNTNVPKK

What all share (experiment): pull-down
Experiment [1] has as its target T1, GST-Bud2-N, GST-tagged N-terminal 336 amino acids of Bud2p (S. cerevisiae, UniProt P33314 1-336).
T1 sequence (looked up): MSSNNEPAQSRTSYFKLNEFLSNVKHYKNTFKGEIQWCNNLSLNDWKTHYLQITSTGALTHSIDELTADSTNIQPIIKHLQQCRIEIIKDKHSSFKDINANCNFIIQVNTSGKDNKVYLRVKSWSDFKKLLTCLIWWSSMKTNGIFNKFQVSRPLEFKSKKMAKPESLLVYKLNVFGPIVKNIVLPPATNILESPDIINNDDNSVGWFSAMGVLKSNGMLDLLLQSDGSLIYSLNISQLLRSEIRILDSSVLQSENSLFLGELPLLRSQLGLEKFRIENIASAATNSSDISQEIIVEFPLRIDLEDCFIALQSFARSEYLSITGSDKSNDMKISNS

The target of experiment [2] is B1.
The target in experiment [3] is T2, His-Arf3, purified, prebound with GTPγS or GDP (S. cerevisiae, UniProt P40994 1-183).
T2 sequence (looked up): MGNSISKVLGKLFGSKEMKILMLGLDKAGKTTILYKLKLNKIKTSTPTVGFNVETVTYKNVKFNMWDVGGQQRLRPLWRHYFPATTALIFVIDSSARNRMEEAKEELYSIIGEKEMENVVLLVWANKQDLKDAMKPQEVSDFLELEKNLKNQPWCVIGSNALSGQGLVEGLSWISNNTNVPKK

Consider B1, for which, in experiment [1], the binding result is reported as “binds”.

B2: GST-Bud2N1, GST-tagged first 120 residues of Bud2p (domain or fragment, S. cerevisiae, UniProt P33314 1-120, looked up)
chain: MSSNNEPAQSRTSYFKLNEFLSNVKHYKNTFKGEIQWCNNLSLNDWKTHYLQITSTGALTHSIDELTADSTNIQPIIKHLQQCRIEIIKDKHSSFKDINANCNFIIQVNTSGKDNKVYLR
Consider B2, for which the binding result in experiment [2] and in experiment [3] was “binds” each time.
